Where “and” joins values, the source holds several entries; their conditions need not be identical. Equal values may be shown once.
Target: T1, MBP-8xHis-1SCC (semi-synthetic Ribonuclease, PDB ID 1SSC) (UniProt P61823 27-138)
T1 construct: also called psfRNAseA; psfRNAseA-c001; source: E. coli BL21 (DE3) T1R, purified (IMAC, size exclusion chromatography)
T1 sequence: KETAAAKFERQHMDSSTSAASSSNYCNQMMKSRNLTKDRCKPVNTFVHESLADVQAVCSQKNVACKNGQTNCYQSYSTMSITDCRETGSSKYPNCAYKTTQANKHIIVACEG
Assay: SPR; MBP-8xHis-1SCC immobilised to about 12000 RU by amine coupling (EDC/NHS) on a Series S CM5 chip, Biacore 8K; peptides as analytes, single-cycle kinetics (2, 10, 50 μM; or 3.125-50 μM in five steps); 25 °C; HBS-P+ (10 mM HEPES pH 7.4, 150 mM NaCl, 0.05% Tween-20); 30 μL/min, 120 s association, 1800 s dissociation; 1:1 binding model
Details: both partners purified

Kd: 0.035 µM and 0.025 µM
B1: known peptide binder (11 residues) of the semi-synthetic Ribonuclease (peptide)
peptide: PYVPVHFDASV
notes: C-terminal stretch of ribonuclease A, the peptide chain of PDB 1SSC; also called wildtype (WT) linear peptide; wild-type peptide; source: synthetic peptide

Source: publication doi:10.1101/2024.06.20.599739, “Design of linear and cyclic peptide binders of different lengths from protein sequence information” (bioRxiv, 2024)
